Assay results taken from a protein production outcome set (Wang et al. 2014).

Assay: label from the status in PepcDB records

Sequence	protein production
MINVEQVFALDIGTRLVMGLIMEKAPGGYHIIARAQTEHRQRAMYDGQIHDIEEVAQAVQRVKEELEEKIKGKLHYVSVAAAGRALKTAVATAQKSELIPMIWEREDIFALEMEAVQQALREIQAEDEIIPYHCVGYSTIESLLEGQNLSSLSGQRGKEAQVKVIATFLPRTVIDGLTRVISKVGLEMRELTLEPIAAGRAAIPPDMRRMNLALVDVGAGTSDIALTKSGSFFAYGMVPMAGDEITERICQHFLVDFQTGEKIKRSLNTKTKVTFTDFLGMKTTVNKEEVLEQIQPVVLELAQKLADEILRLNQGNPHAIILIGGGSQTPLLAEVLSDLLELPRNRVGIQVRERIQGVSGEKSLKGPDAITPIGIGISTIEGEGLQYFSVHVNDLTVQIFELQLATVSDALLAAGITPRLLVGRPGSALTVELNGDIKVSKGQFSKPAQFFLNGEEVKLDHELKPGDKIQFIPAQDGENAQATFADLVPAIPEKKIKVNGESVVFTAQIFCNGRPVTRDGDVPDGAKITVFQNQTLKDLLHFLNDKQYSLSEIRYKINGEERVIPIHKEFYINQQKVALERMIKDGDDLVILVKEVYIKDLQLKPTPMVFYVNGQEVEYPPQIFRILSRGRVLSDQEKVVDGMELSVEGYDTMPLLSELLPYVNIPQDVPANARLSLKRNNQEAEFTTPLIPGDRIEIHWEQVASALLEHHHHHH	not failed
MINYNKTQHLIESMVFERVVPGVNYAFIKNKQIFTSTTGFASIYPEVTQLSPFAEYDLASLTKVLATENVLLKLYDQGELNFTEPLKEFIPTFKDPKVRLYHLLTHTSGIRGWIPHRDELSHDELLNALINLPVTDEFEHKMRYADTNFILLGLVIKSIFGASVQEVATKEIFDQMPLINTTFTPNKSECVPTAIINDQVLQGIPHDPKARQLGLDCGSAGLFSNMRDLITFSQGYLGLKRNVLPYSQDTVSELFDDKTPKGVKPRSWGWDIRFDPKYHYPIILHTGFTGTLIILDRLKKSGLILLTNRVHPTGHNTIFLAMREKIIRSFLNENSKI	failed
MINYPNLPNSALEITEQPEVKEITNELLKQLQNALNSNSLFSEQVELSLKGIVRILEVLLSLDFFKNANEIDSSLRNSIEWLNNAGESLKTKMKEYEGFFSDFNTSMRTNEQEVSATLNANTENIKSEIKKLENQLIETTTRLLTSYQIFLNNARDSANNQITANKTESLEALNQAKTSANNEITANQTQALTNINEAKENANNQITENKTQAITNINEARESATTQITTNKQEVLNSITQEKNQATSEITEAKKSAFNELLETLKPKFSGLFAGAYYIRNVIIFKADGRRKSRI	failed
MIPLSPDTLLAARLLAEGDLAGALRAAQAGLQAEPGNAPLWNLLGVCAARLGQAALAEQCWRQALSLDPATPDAHYNLGCLASERDDAAAADAHYRAELARDPDHCSSLGNLGNLLQDAGRLDEAETCFRRRLAIQPGAAAHYQLGRLLAERGRNGEAEAQLRACLDETPDDVEALQLLGRLLEERGEAGEAEAMLRRALESAPGHAAAGNNLGLLLMAQRRWDEAESPLRAAHAAQPGAALPNLASLLLATGRAAEAETLARQALAAEPGRADWLNLLGLALREQGRDEEAGLAWEQGLASVPDHRRLRQNLGYLQLARGDWAAGWAHHEARLESAVYPALPSPRWQGESLAGRRLLVLFEQGYGDAIQFSRYLNPLLEQGAARVVALCREPLSPLFSRQWPQVAWLAMGSGYPAAFPPHDCHVFSMSLPWALRDFEPRAETYLQADPALRQAWRARLPPGRNIGLVWRRPAPSTRSTIAVPCRGRRLCCRCWPIPAPTGFRCSRSRPMSNANGCSNMAWRSGVPNWGISPTARRCWRNWTAWWPWTPRWRTWRARWACLAGCCWPASMWTGAGDGMAKRRRGTTRFVCSAKGAARDGARRSPGCERRNAQRSRLPGCISRSRSDGCLMLRIRK	failed
MIPPELDMSLLLEFIGANEGTGHFKPLEKKFVRVSGEATIGHVEKFLRRKMGLDPACQVDIICGDHLLEQYQTLREIRRAIGDAAMQDGLLVLHYGLVVSP	not failed
MIPTHLPILQVVVPLMAAPVCILLRRPGLCWAWALLIALTTLTMAVGLLAGVLTHGPSAYHLGDWSPPWGIELHVDLLSALVLVLVTATASLVIVYARASFAAEIDPGHHTLAYCLFLLCLTGLLGMAITGDAFNLFVFLEISSLSSYALVALGRDRRALYAAYHYLILGTVGATFYVIGIGFLYMMTGTLNMNDLAQRLPAVAHSRTAVAGVVFLGVGLSLKLALFPLHKWLPAAYSYAPSAVGAFLAATSTKVAFYVMVRLFLGVLAPAFSANLLPGPVSAREMVMVLALAAILSGSFSAIFQSDAKRLLAYSSVSQIGVMVLGLSLFSLDGVAGGLVHMLNHALIKASLFMALGCVFLRIGSVEIADMAGIGRRMPWTMAAFVIGGLSLIGIPGTAGFISKWQLAQSAIAEGWWLAVAALIASSLLAVVYVGKVIEAAYFRPSPAESPSGAPSAPQEAPAMMLAPLWIAALANIGFGLNTTWTLGLAKRAASALMGLPS	failed
MIPTSREERLKGRRHVRTSEDRSFLVLLAAISVAFGWLLWPFSGALLWATLLAIIFAPLYRLCLETFPEWRNLAALSTVLVVVVMVLIPVAVVIASLVEQGGELYQRVQTGEISFAHPLQQLKSALPDWAASVSDRLAGIDLSALKERLSSLVVPAGQQLAGHAINIGQLTVEFVASLLVMLYLLFFFLRDGDELNLRIRDALPLRRSHTAAILDAFTLSVRGTIKGIILVALIQGALGGLIFWLLGLTAPLLAGALMALLSLLPVLGSALVWVPVGLYLLVAGAVTKGMILLVFGTFVIGLADNFLRPVLVGQSIRMPSYVVLLATLGGLATFGANGFVIGPLVAAMFLTAWHIFVGSKEQQEVRN	failed
MIQAVFERAEDGELRSAEITGHAESGEYGLDVVCASVSTLAINFINSIEKFAGYEPILELNEDEGGYLMVEIPKDLPSHQREMTQLFFESFFLGMANLSENYSEFVQTRVITEN	not failed
MIRDYKSKLEFLAFYDELTGLPNKNSLIRWLNLKVSQMDCIDTYLIFLEVRDLEKLNVTYGYDLVDELIIHISKRIKDIAGEGNKAFKIGFDRFAIICKSENISDFIERMLSQLLLPYNVNGNLIRVNFNIGAAQIENSNEAAANLMRRCDLALIKAKEEGLNEYVIFKPSIELEHHHHHH	failed
MIREAQRSELPALLELWLESTIWGHPFIKSSYWRDCIPLVRDAYLANAQNWVWEEDGKLLGFVSIMEGRFLAAMFVAPKAVRRGIGKALMQYVQQRHPHLMLEVYQKNQPAIDFYHAQGFHIVDCAWQDETQLPTWIMSWPVVQTL	failed
MIRFEIHGDNLTITDAIRNYIEEKVGKLERYFNNVPNAVAHVRVKTYSNSTTKIEVTIPLKDVTLRAEERHDDLYAGIDLITNKLERQVRKYKTRVNRKHRDRGDQDIFVAEVQESTTNNHADDIESENDIEIIRSKQFSLKPMDSEEAVLQMNLLGHDFFIFTDRETDGTSIVYRRKDGKYGLIETTELEHHHHHH	not failed
MIRFEIHGENLTITDAIRNYIEEKIGKLERYFNDVPNATAHVKVKTYQNSATKIEVTIPLKKVTLRAEERNDDLYAGIDLINNKLERQVRKYKTRVNRRNRNRGEQEAFASLPEEKEAVEIQNDENEADNEIEIIRAKNFSLKPMDSEEAVLQMDLLGHDFFIFTDRETDGTSIVYKRKDGKYGLIETTELEHHHHHH	failed
MIRNPKIYIIILNYNAYEDTLECVKSIGNIDYDNYELVLVDNSSTDDSYVKLKESLPSYNIIKSKENLGYANGNNIGIKYALENGADYICILNNDVVVEKDFLNKLVDKIIEKEDVGIVGSCICDYYRREIIQGMGAHINLYFAAARRYFKGKNYNEIEKKDIFVDYLEGACFLVKSEVFEKIGLIPENYFLFFEETEFCTRAINAGYKIMCIYESKVYHKGSATINKFGSLSYAYLNRNRVIFVRRNSKWYQKIIFAIYIFIEAFGRIVIRKEPLTLFKYILGGFKSNKESIDVIDVKSYVKLEHHHHHH	failed
MIRQRSVIAKRAYIDEGVYIGNVVRIGEESMIHRRSRIGSGARIGGSVCIGVYCRIDGSVRIGQHADIGEWVNIDGHARIGNFARIGEWSRIGGRANIAAHVVLEKQSIIHSETCIQDASKLEHHHHHH	failed
MIRRALLIASLAALAGCAGLDAIQNAYQGIQDYFTGKDNAEPPAPLAEITPQVKADKLWMAEIGDGYDDQGINLGPAVDDSRVFAAERHGTVQAFNRLTGEKLWSVDHEMDLSAGPVFDDGELFLATAEGAVIVLNAADGALVWKSTLASEILSVPAVADDVVVVRGTNGHLTGLDRKSGATLWYFERHAPPLAIRSRGAPIIAGDLVIDGFGGGKVSAIQLKEGRLDWEANVSLPHGRSEIERLVDLSATPVVRNDVVFVSGYQGGTASLGLNTGEVQWKRESISSPAGMTADRRELYVTDANADLWQLAIRNGEDQWKQTELHQRRLTAPALVKDYLVVGDFEGYLHVLNKEDGRIVGRVQVTDAPIEYPPVVYGDIVYVYATDGTLAAITVD	failed
MIRTAKLALVAAALSTTALSPLALAAPAPAQPAATASIAVPPIVYQQRVLANGMKVFTSRDTSTPNVSVQVWYGVGSKDDPQGRSGFAHLFEHLMFKATRNMPNETVDRLTEDVGGFNNASTWDDFTNYYEVVPANHLERLIWAEADRLKSLVIDEAVFASERDVVKEELRQRVLADPYGRFFALSIPQQSFAVHPYQRPGIGSIEELDAATVDDVRAFHRTYYRPDNAALIIVGNFDQTKLDAMIDKYFGSLTTPAGAIPKVTAVEPARTGPKTVNTYGPNVPLPALAITWLAPAAADKDAPALAVLDAILTAGKSSRLYDSLVYDQKIAQSVFSSAPNNAQPGLFYVGAIMAGGKTVAQGEAALRAQVARVRDGLVTPAELAEAKAGLLADAVRRREEIDGRGFAIGYALQTEGDAAAANSSLAKLQAVTAADIQRVARQYLADDRRTVINYLPEKDRPAGEKDATPPIPKVASVKYDGPITTLAPEAEREKPPAVAAPVPAVMPTPAEKTLANGLRVIVAKSSELPLITSTLTVKGGASSDPAGLAGTSSLTSELLTEGTATRSATQVARETEALGANLAAGSGWEAASLTLSVTANNADPAMAIMADVAQNPAFKTEELDRVRAETLDGLSVAFQRPGSLASFATSPVLYAGSAYGHVAGGTPGSLPKIKREDLAKTHAAYWRPDNAVLVVTGNLSPEAGFALAEKAFGGWKKPATPPPAPPAAPTGYQPRNVVIDLPGTGQAAVVLAKPAITRADPSYYQGVVANTVLGVGFSSRLNQEIRIKRGLSYGAGSSLTPQGQFGGFSARVQTKNPSAGEVISLTRAELSRLANEPASVGELAARKSVLVGGFGRDLGTSEGLAGILGNLAVYGVPLTEIQSYAAKVEAVTPEQVQAFAKAKLDPTQMSVIVAGDAKAMGEALAKVAPNATVIPAAKLDLDAPGLTQ	failed
MIRTIQDLLNERVAIGKIVNTHGLKGEVKFFPYTNSEEIVKNLSSVVLYNSEKKAFYNLTVESVRRMNKLFLIRFKSIDTIEAAERIKGCEVFIKYEELPKLSEDEYYFYEILDCDVFYESGENVGKVVDIIETGSNDVLVVRKKKKETLIPMTKDCIVEIDKGAKKIIAKEMEWILEHHHHHH	failed
MISDNFFTEHMTIVIAVAIVLLLIIILLTCWKRVPADKALVITGLKKRVLTGKGGIQVPFLETSCIISLEAVSMTTDITEAPSKQGIFVDIAGTAVVKVDNNPEKVLIAVEQFCSGNADRTTQNIKTVVEQILEGKLRGIVSTLTVEQINEDRVAFENSIEDSITRELDNMGLRLLSYTVLKIATQGGYLENRAIPQIAQSKADADIASAERARDTEVKTAAAVREGQKAKLEAEAEIAQSDRDKTIRMEQYRAEQDKIKANADVSYKLQEIENNKIVADRNVELAKKEAQVVEEQLVASVKKPADAKKYETEVQAEANKIKSIKEAEARAQALKIEAQARADAKLLEAKAEAEAIRAQGEAEAEALKAKGIAEAEAKDRLAEAMEKYGEAAMMSMVVERLPEIMAQIAKPMEQIDKITVIDNGSGDGGSKVSKIVSDVAANGFEVLKDLTGADLGEVVRTIANKNSNNKPKTK	failed
